Assay results: US20220088131A1, “COMPOSITIONS AND METHODS RELATING TO C5L2” (King's College London, priority 2013, published 2022)

Tests used:
[1] = tested on: CD4+ T cells; assay: TGF-β receptor chain expression in CD4+ T cells; assay type: cell-based, human; settings: FIG. 16
Experimental: FIG. 16. C5L2 regulates TGF-β receptor chain expression in CD4+ T cells.
Results described above indicate that C5L2-mediated signals actively contribute to the negative regulation of human Th1 and Th17 responses. To further define C5L2-activated signaling events in CD4+ T cells, gene, miRNA and methylation arrays were performed using T cells from the C5-deficient patient and T cells activated in the presence of the dRA. […] It is believed that TGF-β is important for IL-17 production but also IFN-γ suppression. TGF-β receptor signaling via autocrine TGF-β production has been implicated as required for control of Th1 responses and prevention of autoimmunity in certain experimental models (Ishigame, et al., Proc Natl Acad Sci USA. (2013) 110(17):6961-6). It was of interest to examine whether C5L2-mediated signals regulate autocrine TGF-β production, TGF-β receptor signaling, or both.

[2] = tested on: CD14+ monocytes; assay: Pro-inflammatory cytokine release by monocytes (CBA); assay type: cell-based, human; settings: resting and Flagellin-stimulated monocytes; 36 hours; dRA 7 μM, PMX53 10 μM; FIG. 9
Experimental: FIG. 9. C5L2 blockade induces pro-inflammatory cytokine release by human monocytes. CD14+ monocytes (2.5×10^5) were cultured for 36 hours and supernatants assayed for cytokines using CBA. Monocytes were treated with either C5aR/C5L2 double receptor antagonist (dRA; 7 μM), C5aR antagonist (PMX53; 10 μM) or control (non-treated). The effect of antagonist treatment was assessed on non-activated monocytes (white bars) as well as monocytes activated with 1 μg/ml of either Flagellin (light grey bars) or 100 ng/ml LPS (dark grey bars). Data represent n=4 experiments with SEM indicated. Statistical testing was not conducted as insufficient experimental repeats were performed to assume normal distribution. Asterisk denotes that the median value was 10,400 pg/ml.
(§1) Human blood was obtained from healthy volunteers following ethical guidelines set by Kings College London (KCL) ethics committee (REC: 09/H0804/72). PBMCs were isolated by density centrifugation (Ficoll-Paque PLUS; GE healthcare, Uppsala, Sweden). […]
(§2) The Th1/Th2/Th17 Cytometric Bead Array (BD Bioscience) was used to quantify cytokine production by CD4^+ T cells and monocytes following 12 or 36 h culture under distinct activation conditions. […] IL-1β amounts secreted into the cell media were measured by ELISA, according to the manufacturer's protocol (R&D Systems, Abingdon, UK).

[3] = tested on: CD14+ monocytes; assay: IL-1β secretion by monocytes (ELISA); assay type: cell-based, human; settings: resting and LPS-activated (100 ng/ml, 12 h) monocytes; FIG. 8
Experimental: FIG. 8. Effect of C5L2 blockage on IL-1β secretion by resting and activated CD4+ T cells and by monocytes. […] CD4+ T cells were isolated and left non-activated or CD3/CD46-activated as described (with or without addition of the C5aR/C5L2 double antagonist, dRA, 7 μM) and IL-1β secretion into the media measured at 24 h post activation using an ELISA. CD14+ monocytes (2.5×10^5) were left non-activated or activated with 100 ng/ml LPS for 12 h and supernatants assayed for IL-1β by ELISA. Data represent n=3 experiments with SEM for the CD4+ T cells and n=1 for monocytes (conditions were performed in duplicate and shown are the median values of each condition).
as §1, with “Sweden). Cell subsets were isolated by magnetic separation following manufacturer's instructions (Miltenyi Biotec, Auburn, Calif.).” for “Sweden).”
as §2

[4] = tested on: human CD4+ T cells; assay: Cytokine secretion by CD4+ T cells with C5aR or C5aR/C5L2 blockade (Cytometric Bead Array); assay type: cell-based
Text: Human blood was obtained from healthy volunteers following ethical guidelines set by Kings College London (KCL) ethics committee (REC: 09/H0804/72). PBMCs were isolated by density centrifugation (Ficoll-Paque PLUS; GE healthcare, Uppsala, Sweden). Cell subsets were isolated by magnetic separation following manufacturer's instructions (Miltenyi Biotec, Auburn, Calif.). Monocytes were positively selected using anti-CD14 microbeads (average purity 97%) and CD4^+ T cells were isolated from the CD14-negative fraction using anti-CD4 microbeads (average purity 98%). Alternatively, CD4^+ T cells were isolated from purified PBMCs by cell sorting after staining with antibodies to CD14 and CD4 and CD3.
CD4^+ T cells and CD14^+ monocytes were cultured in medium (RPMI-1640 medium (Sigma-Alich, Suffolk, UK), supplemented with 1% GlutaMAX, 1% penicillin/streptomycin (both Life Technologies, Paisley, UK) and 10% FBS (HyClone Laboratories, Logan, Utah). In the case of T cells media was supplemented with 25 U/ml IL-2 (Sigma-Aldrich; or with concentrations indicated in figure legends). CD4^+ T cells (2.5×10^5) were cultured alone or together with plate-bound anti-CD3 (OKT3, Biolegend, San Diego, Calif.), anti-CD3 and anti-CD28 (CD28.2, BD Pharmingen, San Jose, Calif.) or anti-CD3 and anti-CD46 (TRA-2-10, provided by John Atkinson, Washington University, St Louis, Mo.) all immobilised onto 48-well plates at concentrations of 2 μg/ml PBS overnight at 4° C. Monocytes (2.5×10^5) were cultured either alone or in the presence of LPS or Flagellin (1 μg/ml). […] Cells were cultured at 37° C. and 5% CO2 and cytokine secetion assessed at 12, 24 or 36 h post activation.
The Th1/Th2/Th17 Cytometric Bead Array (BD Bioscience) was used to quantify cytokine production by CD4^+ T cells and monocytes following 12 or 36 h culture under distinct activation conditions. Samples were processed following manufacturer's instructions and acquired using BD FACScan. IL-1β amounts secreted into the cell media were measured by ELISA, according to the manufacturer's protocol (R&D Systems, Abingdon, UK).

[5] = activated CD4+ T cells, dRA 7 μM, PMX53 10 μM, FIG. 6

B1: A8delta71-73: Dual C5aR/C5L2 receptor antagonist; C5a variant A8 (C27A, H67F, D69R, M70S, Q71L, G73R, Arg74 deleted) lacking amino acids 71-73 (protein)
chain: TLQKKIEEIAAKYKHSVVKKCCYDGAAVNNDETCEQRAARISLGPRCIKAFTECCVVASQLRANISFKRS
[1]
  expression of TGF-β receptor chains: increased expression
[2]
  secretion of IL-6: promoted secretion
[3]
  IL-1β secretion: increased IL-1β secretion
[4]; [5]
  secretion of IFN-γ: increased secretion
  secretion of IL-17: increased secretion
[4]; resting and activated CD4+ T cells, FIG. 7A
  secretion of IL-6: increased secretion
